{
  "source": "patent US20200216536A1",
  "binders": {"B1": {"name": "wild-type canine IgG.B Fc (CH2 and CH3 domains) with SASA tag (Fc fusion, not shown: small tags and cut ends)", "chain": "APEMLGGPSVFIFPPKPKDTLLIARTPEVTCVVVDLDPEDPEVQISWFVDGKQMQTAKTQPREEQFNGTYRVVSVLPIGHQDWLKGKQFTCKVNNKALPSPIERTISKARGQAHQPSVYVLPPSREELSKNTVSLTCLIKDFFPPDIDVEWQSNGQQEPESKYRTTPPQLDEDGSYFLYSKLSVDKSRWQRGDTFICAVMHEALHNHYTQESLSHSPGK"}},
  "key": {"canine FcRn [1]": {"target": "T1, canine FcRn (UniProtKB-E2ROL6 [FcRn] and UniProtKB-E2RN10 [canine beta-2-microglobulin]) (canine)", "assay": "SPR Biacore 8K, pH 5.5, Fc captured on BSA via SASA tag, FcRn 100-800 nM"}, "canine FcRn [2]": {"target": "T1, canine FcRn", "assay": "SPR Biacore 8K, pH 5.5, Fc captured on BSA via SASA tag, FcRn 200 nM"}, "canine FcRn [3]": {"target": "T1, canine FcRn", "assay": "SPR Biacore 8K, pH 5.5, Fc captured on BSA via SASA tag, FcRn 200 nM", "remark": "listed apart in the source"}, "canine FcRn [4]": {"target": "T1, canine FcRn", "assay": "SPR Biacore 8K, pH 5.5, Fc captured on BSA via SASA tag, FcRn 200 nM", "remark": "listed apart in the source"}, "canine FcRn [5]": {"target": "T1, canine FcRn", "assay": "SPR Biacore 8K, pH 5.5, Fc captured on BSA via SASA tag, FcRn 200 nM", "remark": "listed apart in the source"}, "canine FcRn [6]": {"target": "T1, canine FcRn", "assay": "SPR Biacore 8K, pH 5.5, Fc captured on BSA via SASA tag, FcRn 400 nM; average of the 12 wild-type runs"}, "canine FcRn [7]": {"target": "T1, canine FcRn", "assay": "SPR Biacore 8K, pH 5.5, Fc captured on BSA via SASA tag, FcRn 200 nM", "remark": "listed apart in the source"}, "canine FcRn [8]": {"target": "T1, canine FcRn", "assay": "SPR Biacore 8K, pH 5.5, Fc captured on BSA via SASA tag, FcRn 200 nM", "remark": "listed apart in the source"}, "canine FcRn [9]": {"target": "T1, canine FcRn", "assay": "SPR Biacore 8K, pH 5.5, Fc captured on BSA via SASA tag, FcRn 200 nM", "remark": "listed apart in the source"}, "canine FcRn [10]": {"target": "T1, canine FcRn", "assay": "SPR Biacore 8K, pH 5.5, Fc captured on BSA via SASA tag, FcRn 200 nM", "remark": "listed apart in the source"}},
  "note": "Values joined by “and” are separate entries in the source; they are usually repeats but may differ in a detail not shown here. Identical values can stand only once.",
  "data": [
    {"binder": "B1", "values": [
      {"measurement": "Kd", "setting": "canine FcRn [1]", "result": 3.15, "unit": "µM"},
      {"measurement": "koff", "setting": "canine FcRn [1]", "result": 0.527, "unit": "s⁻¹"},
      {"measurement": "kon", "setting": "canine FcRn [1]", "result": 168000, "unit": "M⁻¹ s⁻¹"},
      {"measurement": "Kd", "setting": "canine FcRn [2]", "result": "0.639 µM and 0.692 µM"},
      {"measurement": "koff", "setting": "canine FcRn [2]", "result": "0.17 s⁻¹ and 0.171 s⁻¹"},
      {"measurement": "kon", "setting": "canine FcRn [2]", "result": "267000 M⁻¹ s⁻¹ and 247000 M⁻¹ s⁻¹"},
      {"measurement": "Kd", "setting": "canine FcRn [3]", "result": "8.99 µM and 3.11 µM"},
      {"measurement": "koff", "setting": "canine FcRn [3]", "result": "0.347 s⁻¹ and 0.354 s⁻¹"},
      {"measurement": "kon", "setting": "canine FcRn [3]", "result": "38700 M⁻¹ s⁻¹ and 114000 M⁻¹ s⁻¹"},
      {"measurement": "Kd", "setting": "canine FcRn [4]", "result": "1.56 µM and 0.754 µM"},
      {"measurement": "koff", "setting": "canine FcRn [4]", "result": "0.179 s⁻¹ and 0.182 s⁻¹"},
      {"measurement": "kon", "setting": "canine FcRn [4]", "result": "115000 M⁻¹ s⁻¹ and 242000 M⁻¹ s⁻¹"},
      {"measurement": "Kd", "setting": "canine FcRn [5]", "result": "0.502 µM and 0.784 µM"},
      {"measurement": "koff", "setting": "canine FcRn [5]", "result": "0.169 s⁻¹ and 0.207 s⁻¹"},
      {"measurement": "kon", "setting": "canine FcRn [5]", "result": "336000 M⁻¹ s⁻¹ and 264000 M⁻¹ s⁻¹"},
      {"measurement": "Kd", "setting": "canine FcRn [6]", "result": 0.566, "unit": "µM"},
      {"measurement": "Kd", "setting": "canine FcRn [7]", "result": "0.955 µM and 1.31 µM"},
      {"measurement": "koff", "setting": "canine FcRn [7]", "result": "0.181 s⁻¹ and 0.209 s⁻¹"},
      {"measurement": "kon", "setting": "canine FcRn [7]", "result": "190000 M⁻¹ s⁻¹ and 159000 M⁻¹ s⁻¹"},
      {"measurement": "Kd", "setting": "canine FcRn [8]", "result": "2.05 µM and 2.99 µM"},
      {"measurement": "koff", "setting": "canine FcRn [8]", "result": "0.31 s⁻¹ and 0.315 s⁻¹"},
      {"measurement": "kon", "setting": "canine FcRn [8]", "result": "151000 M⁻¹ s⁻¹ and 105000 M⁻¹ s⁻¹"},
      {"measurement": "Kd", "setting": "canine FcRn [9]", "result": "0.884 µM and 0.862 µM"},
      {"measurement": "koff", "setting": "canine FcRn [9]", "result": "0.21 s⁻¹ and 0.218 s⁻¹"},
      {"measurement": "kon", "setting": "canine FcRn [9]", "result": "237000 M⁻¹ s⁻¹ and 253000 M⁻¹ s⁻¹"},
      {"measurement": "Kd", "setting": "canine FcRn [10]", "result": "1.71 µM and 2.66 µM"},
      {"measurement": "koff", "setting": "canine FcRn [10]", "result": "0.288 s⁻¹ and 0.326 s⁻¹"},
      {"measurement": "kon", "setting": "canine FcRn [10]", "result": "168000 M⁻¹ s⁻¹ and 123000 M⁻¹ s⁻¹"}
    ]}
  ]
}
